# Laboratory results taken from patent US20250263499A1 (SHENGHE CHINA BIOPHARMACEUTICAL, published 2025).
# Numbering of substitutions follows the chain as printed.
# T1: human CD24 protein (ACRO) (human, UniProt P25063 27-59)
# T1 construct: also called analyte human CD24 protein
# T1 chain (looked up): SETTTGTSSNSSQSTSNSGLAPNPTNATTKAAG
# T2: CD24 on tumor cells (MCF7, SKOV3, HT55, huCD24-MDA-MB-231, CD24-SKOV3) (human, UniProt P25063 27-59)
# T2 construct: whole, on cells; The cell line of each result is named under assay
# T2 chain (looked up): T1 chain (looked up)
# B1: chimeric antibody CH-01 (antibody, human IgG1, kappa, V domains shown)
# VH: QIQLVQSGPELKKPGETVKISCKASGYIFTDYAIHWVKQAPGKGLKWMGFINTATGEPTYADDFKGRFAFSLETSASTAYLQVNSLKNEDTATYFCTSGVHWGQGTTLTVSS
# VL: QIVLTQSPAIMSASLGEEITLTCSASSSVSSMHWYQQKSGTSPKLLIYSTSNLASGVPSRFSGSGSGTFYSLTISSVESEDAADYYCHHWTSYMYTFGGGTKLEIKR
# notes: ms-01 variable regions on a human IgG framework, expressed in CHO cells
# B2: murine anti-CD24 antibody ms-01 (antibody, V domains shown)
# VH: B1 VH
# VL: QIVLTQSPAIMSASLGEEITLTCSASSSVSSMHWYQQKSGTSPKLLIYSTSNLASGVPSRFSGSGSGTFYSLTISSVESEDAADYYCHHWTSYMYTFGGGTKLEIK
# notes: Mouse antibody from a hybridoma
# B3: hu-02-L1H8 (antibody, human IgG1, kappa, V domains shown)
# VH: EVQLQESGPGLVKPSQTLSLTCTVSGYSITSGYTWHWIRQFPGNKLEWMGHIQYTGNTKYNPSLESRITISRDTSKNQFSLKLSSVTAADTATYYCARGSTNSNDYWGQGTLVTVSS
# VL: DIVMTQSPDSLAVSLGERATINCKSSQSLLYSNDQKNYLAWYQQKPGQPPKLLIYWASTRESGVPDRFSGSGSGTDFTLTISSLQAEDVAVYYCQQYFIYPLTFGGGTKLELKR
# notes: also called humanized antibody hu-02-L1H8
# B4: chimeric antibody CH-02 (antibody, human IgG1, kappa, V domains shown)
# VH: EVQLQESGPDLVKPSQSLSLTCTVTGYSITSGYTWHWIRQFPGNKLEWMGHIQYTGNTKYNPSLESRISITRETSKNQFFLQLNSVTTEDTGTYYCARGSTNSNDYWGQGTSVTVSS
# VL: DIVMTQSPSSLAVSVGEKVTVSCKSSQSLLYSNDQKNYLAWYQQKPGQSPKLLIYWASTRESGVPDRFTGSGSGTDFTLTITSVKAEDLAVYYCQQYFIYPLTFGAGTKLELKR
# notes: ms-02 variable regions on a human IgG framework, expressed in CHO cells
# B5: humanized antibody hu-02-L1H1 (antibody, human IgG1, kappa, V domains shown)
# VH: B3 VH with E1Q, F41H, N44K, K45G, M49I, I68V, R72V, T93V
# VL: B3 VL
# notes: Humanized from ms-02: light chain L1, heavy chain H1
# B6: humanized antibody hu-02-L1H7 (antibody, human IgG1, kappa, V domains shown)
# VH: B3 VH with M49I
# VL: B3 VL
# notes: Humanized from ms-02: light chain L1, heavy chain H7
# B7: humanized antibody hu-01-L2H3 (antibody, human IgG1, kappa, V domains shown)
# VH: QVQLVQSGSELKKPGASVKVSCKASGYIFTDYAIHWVKQAPGQGLEWMGFINTATGEPTYADDFKGRFVFSLDTSVSTAYLQISSLKAEDTAVYFCTSGVHWGQGTLVTVSS
# VL: DIQMTQSPSTLSASVGDRVTITCSASSSVSSMHWYQQKPGKAPKLLIYSTSNLASGVPSRFSGSGSGTEYTLTISSLQPDDFATYYCHHWTSYMYTFGGGTKVEIKR
# notes: Humanized from ms-01: light chain L2, heavy chain H3
# B8: humanized antibody hu-01-L1H2 (antibody, human IgG1, kappa, V domains shown)
# VH: B7 VH with K38R
# VL: B7 VL with Y70F
# notes: Humanized from ms-01: light chain L1, heavy chain H2
# B9: humanized antibody hu-01-L1H3 (antibody, human IgG1, kappa, V domains shown)
# VH: B7 VH
# VL: B7 VL with Y70F
# notes: Humanized from ms-01: light chain L1, heavy chain H3
# B10: humanized antibody hu-01-L1H4 (antibody, human IgG1, kappa, V domains shown)
# VH: B7 VH with E46K
# VL: B7 VL with Y70F
# notes: Humanized from ms-01: light chain L1, heavy chain H4
# B11: humanized antibody hu-01-L2H1 (antibody, human IgG1, kappa, V domains shown)
# VH: B7 VH with K38R, F95Y, T97A, S98R
# VL: B7 VL
# notes: Humanized from ms-01: light chain L2, heavy chain H1
# B12: humanized antibody hu-01-L2H2 (antibody, human IgG1, kappa, V domains shown)
# VH: B7 VH with K38R
# VL: B7 VL
# notes: Humanized from ms-01: light chain L2, heavy chain H2
# B13: humanized antibody hu-01-L2H4 (antibody, human IgG1, kappa, V domains shown)
# VH: B7 VH with E46K
# VL: B7 VL
# notes: Humanized from ms-01: light chain L2, heavy chain H4
# B14: humanized antibody hu-01-L3H2 (antibody, human IgG1, kappa, V domains shown)
# VH: B7 VH with K38R
# VL: B7 VL with M4L, A42S
# notes: Humanized from ms-01: light chain L3, heavy chain H2
# B15: humanized antibody hu-01-L3H3 (antibody, human IgG1, kappa, V domains shown)
# VH: B7 VH
# VL: B7 VL with M4L, A42S
# notes: Humanized from ms-01: light chain L3, heavy chain H3
# B16: humanized antibody hu-01-L3H4 (antibody, human IgG1, kappa, V domains shown)
# VH: B7 VH with E46K
# VL: B7 VL with M4L, A42S
# notes: Humanized from ms-01: light chain L3, heavy chain H4
# Columns and labels:
# [1] = biological target: CD24 on tumor cells (MCF7, SKOV3, HT55, huCD24-MDA-MB-231, CD24-SKOV3) (human) (UniProt P25063); assay: flow cytometry on SKOV3 cells (MFI)
# [2] = biological target: CD24 on tumor cells (MCF7, SKOV3, HT55, huCD24-MDA-MB-231, CD24-SKOV3) (human) (UniProt P25063); assay: flow cytometry on MCF7 cells (MFI); fit value given for a flat control curve; unit inferred, unit from the x axis label
# [3] = biological target: CD24 on tumor cells (MCF7, SKOV3, HT55, huCD24-MDA-MB-231, CD24-SKOV3) (human) (UniProt P25063); assay: flow cytometry on SKOV3 cells (MFI); fit value given for a flat control curve; unit inferred, unit from the x axis label
# [4] = biological target: CD24 on tumor cells (MCF7, SKOV3, HT55, huCD24-MDA-MB-231, CD24-SKOV3) (human) (UniProt P25063); assay: flow cytometry on huCD24-MDA-MB-231 cells (MFI); fit value given for a flat control curve; unit inferred, unit from the x axis label
# [5] = biological target: T1, human CD24 protein (ACRO); assay: BLI (ForteBio Octet RED96e), antibody immobilised, human CD24 protein as analyte
# Experimental: ForteBio […] (BLI) was used to detect the affinity of humanized antibodies. The sample to be tested (solidified) was diluted to 20 μg/mL with 0.02% PBST (buffer). The analyte human CD24 protein (ACRO) was diluted to 100 nM with 0.02% PBST (buffer) as the initial concentration, and then diluted by double gradient for 7 gradients starting from this concentration, and a negative control (buffer) was performed.
# The molecular interaction analysis instrument (ForteBio; Octet RED96e) was operated, and 200 μL of curing buffer (0.02% PBST) was added to a pre-wetted plate, and the sensor was pre-wetted for 5-10 min. Diluted samples and other reagents for assay were added into wells in the sample plate corresponding to the pre-wetted sensor.
# [6] = biological target: T2, CD24 on tumor cells (MCF7, SKOV3, HT55, …); assay: flow cytometry on MCF7 cells (MFI); table under the graph prints no unit, unit from the x axis label
# Experimental: (§1) The commercial antibody SN3 (ABCOM; ab134375) and IgG1 isotype control were used as control. MCF7, SKOV3, HT55 or huCD24-MDA-MB-231 cells were taken and transferred to a centrifuge tube, and centrifuged at 1000 rpm for 5 min. 100 μL of MCF7, SKOV3, HT55, or huCD24-MDA-MB-231 cells were spread in a 96 U plate, respectively, and washed twice with PBS. 100 μL of the fusion supernatant was added, and diluted for 8 gradients. Cells were incubated at 4° C. for 60 minutes, and then washed twice with excess FACS buffer. Cells were resuspended in 100 μL of FACS buffer and sheep anti-mouse secondary antibody-FITC (ABCOM; ab6785) was added to the samples, incubated for 30 minutes and washed twice with excess FACS buffer. Cells were fixed in fixation buffer and subsequently analyzed by flow cytometry.
# (§2) The binding activity of the chimeric antibodies CH-01 and CH-02 and tumor cells was detected according to the method of Example 6.
# [7] = biological target: T2, CD24 on tumor cells (MCF7, SKOV3, HT55, …); assay: flow cytometry on SKOV3 cells (MFI); table under the graph prints no unit, unit from the x axis label
# Experimental: as §1, §2
# [8] = biological target: T2, CD24 on tumor cells (MCF7, SKOV3, HT55, …); assay: flow cytometry on MCF7 cells (MFI)
# Experimental: as §1
# [9] = biological target: T2, CD24 on tumor cells (MCF7, SKOV3, HT55, …); assay: flow cytometry on MCF7 cells (MFI)
# [10] = biological target: T2, CD24 on tumor cells (MCF7, SKOV3, HT55, …); assay: flow cytometry on huCD24-MDA-MB-231 cells (MFI); table under the graph prints no unit, unit from the x axis label
Molecule,Kd [5] [nM],also measured
commercial antibody SN3 (ABCOM; ab134375),,EC50 (read off the curve) [1]: 2 µg/mL
IgG1 isotype control (antibody),,EC50 [2]: 0.142 µg/mL; EC50 [3]: 49.7 µg/mL; EC50 [4]: 3.49 µg/mL
B1,8.08,EC50 [6]: 1.69 µg/mL; EC50 [7]: 1.2 µg/mL
B2,,EC50 (read off the curve) [8]: ~2 µg/mL
B3,,binding result [9]: binds
B4,11.9,EC50 [10]: 4.03 µg/mL
B5,62.7,EC50 [10]: 2.08 µg/mL
B6,20.5,EC50 [10]: 3.42 µg/mL
B7,9.03,
B8,5.58,
B9,10,
B10,48.2,
B11,,binding result [5]: no binding (tested: 100 nM (highest analyte concentration))
B12,10.5,
B13,39.1,
B14,8.29,
B15,12.4,
B16,41.2,
